From patent publication US7465453B2, “Polypeptide fragments of CKLF1” (Peking University, priority 2004, dated 2008)
One block for each molecule: values may come before it. Ends that are not written are not given here.

Experiments:
Type in all cases: cell-based
U937 cells = test: Chemotaxis of U937 cells; conditions: for migration (chemotaxis) of U937 cells: C19, C27, RANTES: U937 cells stimulated by 30 ng/ml IFN-γ
Protocol: The chemotaxis assay was performed using a 48-well microchemotaxis chamber (Neutroprobe, Cabin John, Md., U.S.A.). U937 cells were stimulated by 30 ng/ml IFN-γ for 4 days because IFN-γ could increase the expression of chemokine receptors CCR1, CCR3, and CCR5 in U937 cells. Then part cells were incubated with mouse anti CCR5 100 μg/ml, and/or rat anti CCR3 10 μg/ml for 30 minutes at 37° C., and corresponding mouse IgG and rat IgG as controls. Chemoattractants RANTES, C19 and C27 were diluted in HEPES-buffered RPMI 1640 medium supplemented with 0.5% BSA to indicate concentration, and placed in the lower wells (28 μl/well). U937 cells stimulated by IFN-γ were resuspended in the same medium at 1×10^6 cells/ml and added to the upper wells (50 μl/well), which were separated from the lower wells by a polyvinylpyrrolidone-free polycarbonate filter with 5-μm pores pre-coated by 0.001% fibronectin. The chamber was incubated for 2 hours at 37° C. in 5% CO2 and 95% air. Filters were removed from the chamber, washed, fixed, and stained with Three Step Stain Set. Cells that migrated were counted in 5 randomly selected high power fields (400×) per well. The group with no Chemoattractants in the lower wells was used as a control. All samples were assayed twice at least. The chemotactic index (CI) was calculated from the number of cells that migrated to the control. Significant chemotaxis was defined as CI>2.

CCR4 [1] = target: T1, CCR4 (Homo sapiens, UniProt P51679); test: Chemotaxis assay (48-well microchemotaxis chamber) of HEK293 cells transfected with CCR4
T1 construct: The cDNA fragments covering the open reading frames for various chemokine receptors were obtained as follows; expressed in transfected cells; host or cells: HEK293 (transient, electroporation)
T1 sequence (P51679 1-360): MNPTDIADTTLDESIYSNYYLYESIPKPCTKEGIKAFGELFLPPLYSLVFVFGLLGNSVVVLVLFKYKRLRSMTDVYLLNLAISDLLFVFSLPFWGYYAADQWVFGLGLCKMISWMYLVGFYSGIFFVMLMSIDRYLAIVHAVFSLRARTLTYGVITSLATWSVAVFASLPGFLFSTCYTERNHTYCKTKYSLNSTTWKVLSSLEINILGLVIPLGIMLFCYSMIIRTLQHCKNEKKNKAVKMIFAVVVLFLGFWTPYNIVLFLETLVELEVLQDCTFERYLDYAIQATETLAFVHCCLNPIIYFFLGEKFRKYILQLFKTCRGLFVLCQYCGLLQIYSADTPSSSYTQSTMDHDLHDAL
Protocol: (§1) HEK293 cells were grown in RPMI 1640 supplemented with 10% heat-inactivated FBS, penicillin (100 U/ml) and streptomycin (100 μg/ml). Every 4×10^6 HEK293 cells in 400 μl were transiently transfected by electroporation with 15 μg of the expression plasmid at 120 V, 20 ms using an electric pulse generator (Electro Square Porator ECM 830, BTX, San Diego, Calif.), and calcium mobilization assay and chemotaxis assays were performed 48 hours later.
(§2) The chemotaxis assay was performed using a 48-well microchemotaxis chamber (Neutroprobe; Cabin John, Md., U.S.A.). Chemoattractants were diluted in HEPES-buffered RPMI 1640 medium supplemented with 0.1% BSA and placed in the lower wells (28 μl/well). HEK293 cells transfected with pcDI-CCR4, -CCR5 were resuspended in the same medium at 2×10^6 cells/ml and added to the upper wells (50 μl/well), which were separated from the lower wells by a polyvinylpyrrolidone-free polycarbonate filter with 8-μm pores. The chamber was incubated for 2 hours at 37° C. in 5% CO2 and 95% air. Filters were removed from the chamber, washed, fixed, and stained with Three Step Stain Set. Cells that migrated were counted in 5 randomly selected high power fields (400×) per well. The chemotactic index (CI) was calculated from the number of cells that migrated to the control. Significant chemotaxis was defined as CI>2. In some experiments, cells were pretreated with TARC, RANTES, purified CKLF-myc protein or secreted CKLF1 peptides for 30 min. at 37° C., or 100 ng/ml PTX (ALEXIS Biochemicals Corporation) for 6 hours at 37° C. prior to subsequent stimulations.

CCR6 = target: T2, CCR6 (Homo sapiens, UniProt P51684); test: Internalization of CCR6-EGFP in transiently transfected HEK293 cells; conditions: HEK293 cells transfected with pCCR6-EGFP; 37° C., 2 hours
T2 construct: The cDNA fragment covering the open reading frame for CCR6 chemokine receptor was cloned into pEGFP-N1 vector (CLONTECH); expressed in transfected cells; host or cells: HEK293 (transient)
T2 sequence (P51684 1-374): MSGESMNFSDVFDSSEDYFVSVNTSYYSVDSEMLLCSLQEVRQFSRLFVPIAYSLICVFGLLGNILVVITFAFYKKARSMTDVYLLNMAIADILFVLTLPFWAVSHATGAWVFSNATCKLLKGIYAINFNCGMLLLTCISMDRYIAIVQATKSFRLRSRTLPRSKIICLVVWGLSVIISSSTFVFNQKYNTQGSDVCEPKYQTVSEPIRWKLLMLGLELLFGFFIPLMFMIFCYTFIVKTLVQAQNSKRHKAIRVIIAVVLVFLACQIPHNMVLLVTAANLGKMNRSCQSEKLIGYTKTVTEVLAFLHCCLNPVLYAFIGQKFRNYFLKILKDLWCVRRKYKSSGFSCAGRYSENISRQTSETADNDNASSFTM
Protocol: (§3) The cDNA fragment covering the open reading frame for CCR6 chemokine receptor was cloned into pEGFP-N1 vector (CLONTECH). pCCR6-EGFP transiently expressing HEK293 cells were cultured in glass-bottom dishes in RPMI 1640 with 10% FBS. After 16-24 hours of serum starvation, cells were treated with CKLF1 C-terminal peptides or MIP3α at 37° C. for 2 hours. Cells were washed with cold PBS and fixed with 2% paraformaldehyde in PBS. The subcellular localization of CCR6-EGFP protein was visualized using a Leica TCS-NT confocal fluorescence microscope with a 63× oil immersion lens (Wetzler, Heidelberg, Germany). The excitation and emission wavelengths were 488 and 515-540 nm, respectively.

CCR5 [2] = target: T3, CCR5 (Homo sapiens, UniProt P51681); test: Chemotaxis assay (48-well microchemotaxis chamber) of HEK293 cells transfected with CCR5
T3 construct: The cDNA fragments covering the open reading frames for various chemokine receptors were obtained as follows; expressed in transfected cells; host or cells: HEK293 (transient, electroporation)
Protocol: as §1
as §2, with “In some experiments, cells were pretreated with TARC, RANTES, purified CKLF-myc protein or secreted CKLF1 peptides for 30 min. at 37° C., or 100 ng/ml PTX (ALEXIS Biochemicals Corporation) for 6 hours at 37° C. prior to subsequent stimulations.” left out

CCR5 [3] = target: T3, CCR5; test: Calcium flux assay in CCR5-transfected HEK293 cells
Description: (§4) The cDNA fragments covering the open reading frames for various chemokine receptors were obtained as follows. CCR4, CCR5 and CCR6 receptors were cloned from a K562 cell cDNA library by polymerase chain reaction (PCR). The primers were designed using the sequences from the following GenBank™ submissions: CCR4 (NM_005508.2), CCR5 (NM_000579) and CCR6 (AY242126). The fragments were cloned into an expression vector pcDI (modified in our lab from pcDNA3 vector (Invitrogen), in which the part between BgI II-Kpn I was replaced by the fragment of pCl vector (Promega) digested with BgI II-Kpn I) or pEGFP-N1 vector (CLONTECH) for efficient expression in HEK293 cells. The sequences coding receptors in expression plasmids were confirmed by DNA sequencing, which is consistent with the sequence submitted in GenBank™.
as §1
(§5) HEK293 cells transfected with pcDI-CCR4 or pcDI-CCR5 were grown in specialized glass-bottom microwell dishes (MatTek Corporation, U.S.A.) and loaded with 10 μM fluo-3/AM in HEPES-buffered saline at 37° C. for 1 hour in the dark. The cells were rinsed with HEPES-buffered saline and stimulated with 167 nM secreted CKLF1 peptides and 100 nM TARC or RANTES, respectively. Fluorescence was monitored at 488 nm (excitation wavelength) and 530 nm (emission wavelength) every 5 second using a Leica TCS-NT confocal fluorescence microscope with a 40× oil immersion lens (Wetzler, Heidelberg, Germany). The measurement was completed at room temperature and each field of cells was selected at random. Images were collected at 5 second intervals for 405 seconds. The images were analyzed for relative fluorescence using Leica confocal software. The relative fluorescence was determined using Microsoft Excel. All calcium flux assays were performed in the presence of extracellular calcium (in the absence of EDTA or EGTA) in the assay buffers. Therefore, both intracellular calcium release and extracellular calcium influx were analyzed.

CCR4 [4] = target: T1, CCR4; test: Internalization of CCR4-EGFP in transiently transfected HEK293 cells; conditions: HEK293 cells transfected with pCCR4-EGFP; 37° C., 2 hours
Protocol: as §3, with “CCR4” for “CCR6”, “pCCR4-EGFP” for “pCCR6-EGFP”, “16 to 24” for “16-24”, “hours” for “hours of”, “TARC” for “MIP3α”, “CCR4-EGFP” for “CCR6-EGFP”

CCR4 [5] = target: T1, CCR4; test: Calcium flux assay in CCR4-transfected HEK293 cells
Description: as §4, §1, §5

T3 sequence (P51681 whole entry, the tested form may be a part): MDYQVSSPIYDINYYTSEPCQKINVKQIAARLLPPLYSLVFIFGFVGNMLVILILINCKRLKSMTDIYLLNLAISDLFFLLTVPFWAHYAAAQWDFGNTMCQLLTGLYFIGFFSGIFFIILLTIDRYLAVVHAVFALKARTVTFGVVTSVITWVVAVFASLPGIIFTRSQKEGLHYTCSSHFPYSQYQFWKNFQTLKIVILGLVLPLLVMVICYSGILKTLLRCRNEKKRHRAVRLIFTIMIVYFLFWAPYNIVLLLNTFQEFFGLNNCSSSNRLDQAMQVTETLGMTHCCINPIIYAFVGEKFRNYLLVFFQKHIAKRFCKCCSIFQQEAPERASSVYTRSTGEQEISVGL

Molecule: CKLF1-myc protein: recombinant CKLF1-myc protein expressed in Drosophila S2 cells and purified from the supernatant (ALIYRKLLFNPSGPYQKKPVHEKKEVL; not fully specified)
migration (chemotaxis) of U937 cells (U937 cells): can induce the chemotaxis
migration (chemotaxis) of transfected cells (CCR4 [1]; CCR4-transfected HEK293 cells): could induce the chemotaxis

Molecule: MIP3α: chemokine used as comparison treatment in the CCR6-EGFP internalization assay [reference compound]
internalization of CCR6-EGFP (CCR6): internalization of chemokine receptors induced by MIP3α

Further lines, with some results ahead:

chemotaxis induced after PTX pretreatment (CCR5 [2]; CCR5-transfected HEK293 cells treated with 100 ng/ml PTX at 37° C. for 30 min): completely abolished by PTX
calcium flux (CCR5 [3]; CCR5-transfected HEK293 cells, 167 nM C27 or C19, 100 nM RANTES): induced calcium flux
Molecule: RANTES: cognate ligand for CCR5 (peprotech), positive control [reference compound]
migration (chemotaxis) of U937 cells (U937 cells): could induce migration
chemotactic activity after neutralization of chemokine receptors (U937 cells; IFN-γ-stimulated U937 cells, mouse anti CCR5 and/or rat anti CCR3): obviously inhibited
desensitization of the receptor to subsequent stimulation with the purified CKLF1-myc protein (chemotaxis) (CCR4 [1]; CCR4-transfected HEK293, pretreatment): could desensitize the receptor
desensitization of the receptor to subsequent stimulation with RANTES, C27 or C19 (chemotaxis) (CCR5 [2]; HEK293/CCR5, pretreatment 1 mM RANTES or 2 μg/ml C27 or C19, 37° C., 30 min): could desensitize the receptor
desensitization of the receptor to subsequent stimulation with C27 and C19 (CCR5 [3]; CCR5 transfectants, pretreatment with 100 nM RANTES): desensitized the receptor

chemotaxis induced after PTX pretreatment (CCR4 [1]; CCR4-transfected HEK293 cells treated with 100 ng/ml PTX at 37° C. for 30 min): completely abolished by PTX
calcium flux (CCR4 [5]; CCR4-transfected HEK293 cells, 167 nM C27 or C19, 100 nM TARC): induced calcium flux
B1: TARC: cognate ligand for CCR4 (peprotech), positive control (protein)
chain: ARGTNVGRECCLEYFKGAIPLRKLKTWYQTSEDCSRDAIVFVTVQGRAICSDPNNKRVKNAVKYLQSLERS
internalization of CCR4-EGFP (CCR4 [4]): internalization of chemokine receptors induced by TARC
desensitization of the receptor to subsequent stimulation with TARC, C27 or C19 (chemotaxis) (CCR4 [1]; HEK293/CCR4, pretreatment TARC or 2 μg/ml C27 or C19, 37° C., 30 min): could desensitize the receptor
desensitization of the receptor to subsequent stimulation with C27 and C19 (CCR4 [5]; CCR4 transfectants, pretreatment with 100 nM TARC): desensitized the receptor
